{"source": "patent US10689452", "about": "(UNIVERSIT T STUTTGART, dated 2020)", "key": {"[1]": {"molecular_target": "T1, human TNFR1-Fc fusion protein (human, UniProt P19438 29-211)", "T1 construct": "range 29-211; Made in stably transfected HEK293 cells; coated on ELISA plates or immobilised on QCM chips; also called huTNFR1-Fc; human TNFR-Fc; not shown: Fc part from vector pSecTagL1-Fc", "T1 sequence (looked up)": "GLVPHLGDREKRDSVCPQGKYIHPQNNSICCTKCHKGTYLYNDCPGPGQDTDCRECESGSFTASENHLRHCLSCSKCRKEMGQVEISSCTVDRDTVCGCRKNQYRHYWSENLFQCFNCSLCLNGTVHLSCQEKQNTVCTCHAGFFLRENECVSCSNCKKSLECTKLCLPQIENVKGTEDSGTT", "assay": "QCM, human TNFR1-Fc, moderate receptor density (86 Hz), biphasic fit, koff2 (high-affinity part)", "description": "(§1) Real-time binding dynamics in protein-protein interactions were determined by quartz crystal microbalance measurements (A-100 C-Fast or Cell-200 C-Fast, Attana, Stockholm, Sweden). One of the binding partners (ligand, e.g. TNFR1-Fc) was chemically immobilized on a carboxyl sensor chip according to the manufacturer's protocol at different densities (nearly 200 Hz in the case of saturating conditions to confirm previously published results and 50-100 Hz, in particular at about 50 Hz, to establish conditions of lower receptor density, better resembling the situation on the cellular surface). Binding experiments were performed with samples (analyte) diluted in PBST (PBS, 0.1% Tween 20) at pH 7.4 with a flow rate of 25 µl/min at 37° C. The chip was regenerated with 25 µl 5 mM NaOH or 20 mM glycine, pH 2.0. Every third measurement, an injection of running buffer was measured which was subtracted from the binding curve. Data were collected using the software provided by Attana for the particular device and analyzed by Attaché Office Evaluation software (Attana, Stockholm, Sweden) and TraceDrawe (ridgview instruments, Vange, Sweden)."}, "[2]": {"molecular_target": "T2, human TNFR1 on cells (HT1080, HeLa, Kym-1) (human, UniProt P19438 30-455)", "T2 sequence (looked up)": "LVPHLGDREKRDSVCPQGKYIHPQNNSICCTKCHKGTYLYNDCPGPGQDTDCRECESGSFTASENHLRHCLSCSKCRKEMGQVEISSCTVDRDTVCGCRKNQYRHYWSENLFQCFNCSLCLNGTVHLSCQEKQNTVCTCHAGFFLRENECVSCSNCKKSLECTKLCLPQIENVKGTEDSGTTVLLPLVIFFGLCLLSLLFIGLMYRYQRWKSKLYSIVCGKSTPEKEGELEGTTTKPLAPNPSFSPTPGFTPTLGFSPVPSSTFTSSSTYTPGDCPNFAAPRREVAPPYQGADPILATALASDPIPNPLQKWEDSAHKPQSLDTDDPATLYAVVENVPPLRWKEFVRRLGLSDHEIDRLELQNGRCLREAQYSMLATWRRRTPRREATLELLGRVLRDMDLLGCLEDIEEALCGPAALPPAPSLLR", "assay": "cell-based or functional assay"}, "[3]": {"molecular_target": "T2, human TNFR1 on cells (HT1080, HeLa, …)", "assay": "cell-based or functional assay", "remark": "listed apart in the source"}, "[4]": {"molecular_target": "T1, human TNFR1-Fc fusion protein", "assay": "QCM, human TNFR1-Fc immobilised, low receptor density (48 Hz)", "description": "as §1"}, "[5]": {"molecular_target": "T1, human TNFR1-Fc fusion protein", "assay": "standard ELISA, human TNFR1-Fc", "description": "FIG. 1. […] Applied were triplicates of five concentrations between 3.9 nM and 62.5 nM.\n(§2) Microtiter plates were coated with 100 µl of the indicated protein (1 µg/ml in PBS, see Table 3.3) and incubated at 4° C. over night. The residual binding sites were blocked with 2% MPBS (skim milk in PBS, 200 µl per well) at room temperature for 2 hours and subsequently washed twice with PBS. 100 µl of the samples diluted in 2% MPBS were incubated at room temperature for 1 hour prior to the last incubation step with 100 µl of the HRP conjugated detection antibodies in 2% MPBS. In the case of competition experiments, both analyzed protein samples were prepared individually (either titrated or diluted to a single concentration) and mixed before they were applied to the plate. Bound protein was detected with 100 µl TMB substrate solution, the HRP-reaction was stopped by the addition of 50 µl 1 M H2SO4 and the absorption at the wavelength of 450 nm was measured using the Infinite microtiter plate reader (TECAN, Maennedorf, Switzerland). Between each incubation step and in advance of the detection, the plates were washed three times with PBST and twice with PBS."}, "[6]": {"molecular_target": "T1, human TNFR1-Fc fusion protein", "assay": "QCM, human TNFR1-Fc, moderate receptor density (86 Hz), biphasic fit, KD2 (high-affinity part)", "description": "as §1"}, "[7]": {"molecular_target": "T1, human TNFR1-Fc fusion protein", "assay": "ELISA on coated human TNFR1-Fc, reference curve next to Fv13.7-Fckih0DS", "description": "as §2"}, "[8]": {"molecular_target": "T1, human TNFR1-Fc fusion protein", "assay": "QCM, human TNFR1-Fc, moderate receptor density (86 Hz), biphasic fit, KD1 (low-affinity part)", "description": "as §1"}}}
{"binder": "ATROSAB (antibody, IgG1, V domains shown, Humanized full-length IgG1 with a modified Fc region deficient in mediating effector functions (made according to WO2012035141); also called full length IgG ATROSAB) VH: QVQLVQSGAEVKKPGSSVKVSCKASGYTFTDFYINWVRQAPGQGLEWIGEIYPYSGHAYYNEKFKARVTITADKSTSTAYMELSSLRSEDTAVYYCARWDFLDYWGQGTTVTVSS VL: DIVMTQSPLSLPVTPGEPASISCRSSQSLLHSNGNTYLHWYLQKPGQSPQLLIYTVSNRFSGVPDRFSGSGSGTDFTLKISRVEAEDVGVYYCSQSTHVPYTFGGGTKVEIKR", "values": [{"measurement": "koff", "setting": "[1]", "value": 0.000407, "unit": "s⁻¹"}, {"measurement": "Factor, IC50 LT (ATROSAB against H398)", "setting": "[2]", "value": 12, "unit": "fold"}, {"measurement": "Factor, IC50 TNF (ATROSAB against H398)", "setting": "[2]", "value": 10, "unit": "fold"}, {"measurement": "IC50, LT [nM] (inhibition of IL-8 release from HT1080 cells induced by LTα)", "setting": "[2]", "value": 7.6, "unit": "nM"}, {"measurement": "IC50, TNF [nM] (inhibition of IL-8 release from HT1080 cells induced by 0.1 nM TNF)", "setting": "[2]", "value": 42, "unit": "nM"}, {"measurement": "IC50, Cytotox (nM); inhibition of Kym-1 cell death by 0.01 nM TNF", "setting": "[3]", "value": 24, "unit": "nM"}, {"measurement": "IC50, IL-6 (nM); inhibition of the response of HeLa cells to 0.1 nM TNF", "setting": "[3]", "value": 179, "unit": "nM"}, {"measurement": "IC50, IL-8 (nM); inhibition of the response of HT1080 cells to 0.1 nM TNF", "setting": "[3]", "value": 118, "unit": "nM"}, {"measurement": "IL-6 release (pg/ml), HeLa cells", "setting": "[3]", "value": 231, "unit": "pg/mL"}, {"measurement": "IL-8 release (pg/ml), HT1080 cells", "setting": "[3]", "value": 240, "unit": "pg/mL"}, {"measurement": "Factor (KD low density chip, ATROSAB against H398)", "setting": "[4]", "value": 2.8, "unit": "fold"}, {"measurement": "Factor (koff low density chip, ATROSAB against H398)", "setting": "[4]", "value": 7.6, "unit": "fold"}, {"measurement": "Kd", "setting": "[4]", "value": 4.5, "unit": "nM"}, {"measurement": "fold faster kon than H398", "setting": "[4]", "value": 2.6, "unit": "fold"}, {"measurement": "koff", "setting": "[4]", "value": 0.0047, "unit": "s⁻¹"}, {"measurement": "EC50", "setting": "[5]", "value": 0.25, "unit": "nM"}, {"measurement": "Factor (EC50, ATROSAB against H398)", "setting": "[5]", "value": 1.7, "unit": "fold"}, {"measurement": "Kd", "setting": "[6]", "value": 0.38, "unit": "nM"}, {"measurement": "EC50 (read off the curve)", "setting": "[7]", "value": "~0.2", "unit": "nM"}, {"measurement": "Kd", "setting": "[8]", "value": 78, "unit": "nM"}]}
